Assay results reported in article PMC10786891, “Massively parallel profiling of RNA-targeting CRISPR-Cas13d”.
Changes are numbered by the printed parent chain.

T1: EsCas13d, nuclease-dead (Eubacterium siraeum, UniProt B0MS50, R295A;H300A;R849A;H854A)
T1 sequence: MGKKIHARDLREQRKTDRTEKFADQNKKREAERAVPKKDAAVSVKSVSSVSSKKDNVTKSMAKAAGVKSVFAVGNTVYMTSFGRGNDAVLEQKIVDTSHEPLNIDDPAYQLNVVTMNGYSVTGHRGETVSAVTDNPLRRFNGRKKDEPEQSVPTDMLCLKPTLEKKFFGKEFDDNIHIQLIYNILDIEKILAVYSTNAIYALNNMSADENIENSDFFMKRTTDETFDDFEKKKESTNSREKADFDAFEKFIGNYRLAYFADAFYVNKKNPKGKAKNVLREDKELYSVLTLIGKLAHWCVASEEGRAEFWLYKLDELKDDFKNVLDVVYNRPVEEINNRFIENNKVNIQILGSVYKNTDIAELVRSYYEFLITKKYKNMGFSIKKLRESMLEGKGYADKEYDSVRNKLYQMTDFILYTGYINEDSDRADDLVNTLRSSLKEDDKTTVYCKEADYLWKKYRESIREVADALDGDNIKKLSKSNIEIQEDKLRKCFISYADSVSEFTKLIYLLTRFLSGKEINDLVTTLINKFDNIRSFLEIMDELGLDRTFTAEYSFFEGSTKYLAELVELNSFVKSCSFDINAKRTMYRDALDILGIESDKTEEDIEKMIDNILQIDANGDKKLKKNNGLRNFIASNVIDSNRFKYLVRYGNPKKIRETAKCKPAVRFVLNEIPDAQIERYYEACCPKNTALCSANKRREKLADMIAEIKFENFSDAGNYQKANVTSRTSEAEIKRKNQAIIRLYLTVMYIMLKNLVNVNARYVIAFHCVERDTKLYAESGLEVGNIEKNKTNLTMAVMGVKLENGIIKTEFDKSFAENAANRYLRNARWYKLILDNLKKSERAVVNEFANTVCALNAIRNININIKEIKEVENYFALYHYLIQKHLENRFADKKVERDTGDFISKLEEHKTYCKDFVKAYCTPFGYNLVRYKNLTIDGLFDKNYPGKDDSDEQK

B1: target 2 MT 5'PFS GCC 3'PFS AUA (mixed)
RNA 1: CACCCGUGCAAAAUUGCAGGGGUCUAAAACCUUCUCCAAAUUGUUUCAUCCU
RNA 2: GGGAAUGGAUCCACAUCUACGAAUUCGCCAGGAUGAAACAAUUUGGAGAAGAUAAGAUCGGAAGAGCACACGU
B2: target 2 MT 5'PFS UAG 3'PFS UGU (mixed)
RNA 1: B1 RNA 1
RNA 2: B1 RNA 2 with G27U, C28A, C29G, A52U, U53G, A54U
B3: target 2 MT 5'PFS GAC 3'PFS UUC (mixed)
RNA 1: B1 RNA 1
RNA 2: B1 RNA 2 with C28A, A52U, A54C
B4: target 2 MT 5'PFS ACU 3'PFS AUU (mixed)
RNA 1: B1 RNA 1
RNA 2: B1 RNA 2 with G27A, C29U, A54U
B5: target 2 MT 5'PFS GAU 3'PFS UUC (mixed)
RNA 1: B1 RNA 1
RNA 2: B1 RNA 2 with C28A, C29U, A52U, A54C
B6: target 2 MT 5'PFS AUU 3'PFS CGG (mixed)
RNA 1: B1 RNA 1
RNA 2: B1 RNA 2 with G27A, C28U, C29U, A52C, U53G, A54G
B7: target 2 MT 5'PFS GCC 3'PFS AUG (mixed)
RNA 1: B1 RNA 1
RNA 2: B1 RNA 2 with A54G
B8: target 2 MT 5'PFS ACU 3'PFS AUG (mixed)
RNA 1: B1 RNA 1
RNA 2: B1 RNA 2 with G27A, C29U, A54G
B9: target 2 MT 5'PFS GAC 3'PFS UUA (mixed)
RNA 1: B1 RNA 1
RNA 2: B1 RNA 2 with C28A, A52U
B10: target 2 MT 5'PFS GGA 3'PFS ACU (mixed)
RNA 1: B1 RNA 1
RNA 2: B1 RNA 2 with C28G, C29A, U53C, A54U
B11: target 2 MT 5'PFS CUG 3'PFS UAG (mixed)
RNA 1: B1 RNA 1
RNA 2: B1 RNA 2 with G27C, C28U, C29G, A52U, U53A, A54G
B12: target 2 MT 5'PFS UUG 3'PFS CUC (mixed)
RNA 1: B1 RNA 1
RNA 2: B1 RNA 2 with G27U, C28U, C29G, A52C, A54C
B13: target 2 MT 5'PFS GGA 3'PFS ACG (mixed)
RNA 1: B1 RNA 1
RNA 2: B1 RNA 2 with C28G, C29A, U53C, A54G
B14: target 2 MT 5'PFS AUU 3'PFS AGG (mixed)
RNA 1: B1 RNA 1
RNA 2: B1 RNA 2 with G27A, C28U, C29U, U53G, A54G
B15: target 2 MT 5'PFS AGA 3'PFS CCA (mixed)
RNA 1: B1 RNA 1
RNA 2: B1 RNA 2 with G27A, C28G, C29A, A52C, U53C
B16: target 2 MT 5'PFS AGA 3'PFS CCG (mixed)
RNA 1: B1 RNA 1
RNA 2: B1 RNA 2 with G27A, C28G, C29A, A52C, U53C, A54G
B17: target 2 MT 5'PFS UAA 3'PFS UAU (mixed)
RNA 1: B1 RNA 1
RNA 2: B1 RNA 2 with G27U, C28A, C29A, A52U, U53A, A54U
B18: target 2 MT 5'PFS UGC 3'PFS CAC (mixed)
RNA 1: B1 RNA 1
RNA 2: B1 RNA 2 with G27U, C28G, A52C, U53A, A54C
B19: target 2 MT 5'PFS GAC 3'PFS UUG (mixed)
RNA 1: B1 RNA 1
RNA 2: B1 RNA 2 with C28A, A52U, A54G
B20: target 2 MT 5'PFS GGA 3'PFS ACC (mixed)
RNA 1: B1 RNA 1
RNA 2: B1 RNA 2 with C28G, C29A, U53C, A54C
B21: target 2 MT 5'PFS AGA 3'PFS UAU (mixed)
RNA 1: B1 RNA 1
RNA 2: B1 RNA 2 with G27A, C28G, C29A, A52U, U53A, A54U
B22: target 2 MT 5'PFS AUU 3'PFS AGA (mixed)
RNA 1: B1 RNA 1
RNA 2: B1 RNA 2 with G27A, C28U, C29U, U53G
B23: target 2 MT 5'PFS AUU 3'PFS CGA (mixed)
RNA 1: B1 RNA 1
RNA 2: B1 RNA 2 with G27A, C28U, C29U, A52C, U53G
B24: target 2 MT 5'PFS CGU 3'PFS CGC (mixed)
RNA 1: B1 RNA 1
RNA 2: B1 RNA 2 with G27C, C28G, C29U, A52C, U53G, A54C
B25: target 2 MT 5'PFS GGA 3'PFS ACA (mixed)
RNA 1: B1 RNA 1
RNA 2: B1 RNA 2 with C28G, C29A, U53C
B26: target 2 MT 5'PFS AAC 3'PFS UGU (mixed)
RNA 1: B1 RNA 1
RNA 2: B1 RNA 2 with G27A, C28A, A52U, U53G, A54U
B27: target 2 MT 5'PFS CAU 3'PFS ACU (mixed)
RNA 1: B1 RNA 1
RNA 2: B1 RNA 2 with G27C, C28A, C29U, U53C, A54U
B28: target 2 MT 5'PFS AAA 3'PFS AAC (mixed)
RNA 1: B1 RNA 1
RNA 2: B1 RNA 2 with G27A, C28A, C29A, U53A, A54C
B29: target 2 MT 5'PFS AGA 3'PFS UAC (mixed)
RNA 1: B1 RNA 1
RNA 2: B1 RNA 2 with G27A, C28G, C29A, A52U, U53A, A54C
B30: target 2 MT 5'PFS ACU 3'PFS AUC (mixed)
RNA 1: B1 RNA 1
RNA 2: B1 RNA 2 with G27A, C29U, A54C
B31: target 2 MT 5'PFS AUU 3'PFS AGU (mixed)
RNA 1: B1 RNA 1
RNA 2: B1 RNA 2 with G27A, C28U, C29U, U53G, A54U
B32: target 2 MT 5'PFS UUG 3'PFS UUC (mixed)
RNA 1: B1 RNA 1
RNA 2: B1 RNA 2 with G27U, C28U, C29G, A52U, A54C
B33: target 2 MT 5'PFS UAG 3'PFS UGC (mixed)
RNA 1: B1 RNA 1
RNA 2: B1 RNA 2 with G27U, C28A, C29G, A52U, U53G, A54C
B34: target 2 MT 5'PFS AGG 3'PFS UAA (mixed)
RNA 1: B1 RNA 1
RNA 2: B1 RNA 2 with G27A, C28G, C29G, A52U, U53A
B35: target 2 MT 5'PFS AUU 3'PFS AGC (mixed)
RNA 1: B1 RNA 1
RNA 2: B1 RNA 2 with G27A, C28U, C29U, U53G, A54C
B36: target 1 insC 3' of 9,insC 3' of 1 (mixed)
RNA 1: CACCCGUGCAAAAAUGCAGGGGUCUAAAACUGAGCGGAUAACCUCUCUAUGG
RNA 2: GGGAAUGGAUCCACAUCUACGAAUUCGUACCAUAGAGAGGUUACUCCGCUCACCCGAGAUCGGAAGAGCACACGU
B37: target 1 insU 3' of 5,insA 3' of 4 (mixed)
RNA 1: B36 RNA 1
RNA 2: B36 RNA 2 with C44U, U45C, C47G, G48U, U50A, C51U, A52C, C53A
B38: target 1 insU 3' of 18,insG 3' of 7 (mixed)
RNA 1: B36 RNA 1
RNA 2: GGGAAUGGAUCCACAUCUACGAAUUCGUACCAUAUGAGAGGUUAUCGCGCUCACCGAGAUCGGAAGAGCACACGU

target: T1, EsCas13d, nuclease-dead; assay: crRNA (strand 1, pre-loaded); Mg2+; 40 mM Tris-HCl pH 7.5, 150 mM NaCl, 6 mM MgCl2, 1 mM DTT, 0.1% Tween-20, 0.2 mg/ml BSA; 25 C; 10 min per concentration, then washed; details: tags: His6-TwinStrep-SUMO cleaved; N-terminal SNAP kept (SNAP-Surface 488); label: 3' end held by stalled T7 RNA polymerase

Binder	Kd [nM]
B1	10.4 ± 1.8
B2	4.9 ± 0.5
B3	33 ± 12
B4	4.4 ± 0.6
B5	28 ± 7
B6	9.6 ± 1.7
B7	12.9 ± 1.1
B8	4.9 ± 0.6
B9	14.3 ± 3
B10	9.8 ± 0.7
B11	3.1 ± 0.5
B12	37 ± 8
B13	13.9 ± 1.4
B14	13 ± 2.9
B15	~24
B16	8.3 ± 1.1
B17	3.7 ± 1
B18	18 ± 4
B19	15 ± 4

Binder	Kd [nM]
B20	14.1 ± 2.6
B21	7.4 ± 1.4
B22	5.4 ± 0.8
B23	5.5 ± 0.4
B24	11.1 ± 1.7
B25	10.4 ± 1.2
B26	6.9 ± 1.2
B27	9 ± 1.9
B28	4.6 ± 0.7
B29	6.5 ± 1.1
B30	4.1 ± 0.4
B31	4.5 ± 0.4
B32	64 ± 20
B33	2.73 ± 0.25
B34	4.9 ± 1.1
B35	6.4 ± 0.8
B36	9.4 ± 0.6
B37	16.2 ± 1.2
B38	25.5 ± 1.2
